This is an account of results in IntAct's records for PubMed 10713164.

This experiment has as its target ncor2_human NCOR2 (UniProt Q9Y618).

Regarding “Recombining binding protein suppressor of hairless (Homo sapiens), Q06330 E233A;E234A;F235A”, the “effect of a mutation on the interaction” value was “decreasing interaction strength”.
